Laboratory results as given in US4235962A, “Combination kit for transaminase assay of a body fluid” (The Dow Chemical Company, priority 1978, dated 1980).

Legend:
[1] = substrate: N[C@@H](CC(=O)O)C(=O)O; assay: purified protein, by the assay type
From the text: For precise measurement of a bimolecular reaction of the type under discussion, the rate of a reaction, at a given "B" concentration should be independent of A's concentration (i.e. at or near apparent Vmax with respect to A).
A. AST cross measurement in an ALT test for a ping pong mechanism, [formula] […] [formula]
Going through the same mathematical explanation: [formula]

[2] = substrate: C[C@H](N)C(=O)O; assay: purified protein, by the assay type; conditions: other: 15 mM 2-oxoglutarate

Protein	Km ([1]; other: 0.2 mM 2-oxoglutarate) [mM]	Km ([1]; other: 15 mM 2-oxoglutarate) [mM]	Km [2] [mM]
AST (aspartate 2-oxoglutarate aminotransferase) (Homo sapiens) (protein) APPSVFAEVPQAQPVLVFKLTADFREDPDPRKVNLGVGAYRTDDCHPWVLPVVKKVEQKIANDNSLNHEYLPILGLAEFRSCASRLALGDDSPALKEKRVGGVQSLGGTGALRIGADFLARWYNGTNNKNTPVYVSSPTWENHNAVFSAAGFKDIRSYRYWDAEKRGLDLQGFLNDLENAPEFSIVVLHACAHNPTGIDPTPEQWKQIASVMKHRFLFPFFDSAYQGFASGNLERDAWAIRYFVSEGFEFFCAQSFSKNFGLYNERVGNLTVVGKEPESILQVLSQMEKIVRITWSNPPAQGARIVASTLSNPELFEEWTGNVKTMADRILTMRSELRARLEALKTPGTWNHITDQIGMFSFTGLNPKQVEYLVNEKHIYLLPSGRINVSGLTTKNLDYVATSIHEAVTKIQ	0.91	10	
ALT (alanine 2-oxoglutarate aminotransferase) (Homo sapiens) (protein) ASSTGDRSQAVRHGLRAKVLTLDGMNPRVRRVEYAVRGPIVQRALELEQELRQGVKKPFTEVIRANIGDAQAMGQRPITFLRQVLALCVNPDLLSSPNFPDDAKKRAERILQACGGHSLGAYSVSSGIQLIREDVARYIERRDGGIPADPNNVFLSTGASDAIVTVLKLLVAGEGHTRTGVLIPIPQYPLYSATLAELGAVQVDYYLDEERAWALDVAELHRALGQARDHCRPRALCVINPGNPTGQVQTRECIEAVIRFAFEERLFLLADEVYQDNVYAAGSQFHSFKKVLMEMGPPYAGQQELASFHSTSKGYMGECGFRGGYVEVVNMDAAVQQQMLKLMSVRLCPPVPGQALLDLVVSPPAPTDPSFAQFQAEKQAVLAELAAKAKLTEQVFNEAPGISCNPVQGAMYSFPRVQLPPRAVERAQELGLAPDMFFCLRLLEETGICVVPGSGFGQREGTYHFRMTILPPLEKLRLLLEKLSRFHAKFTLEYS			18.1
